Results as given in PMC6191937 (Cell, 2018).

Molecular target: T1, EGFP-MOV10 (human, UniProt Q9HCE1 1-1003)
T1 sequence: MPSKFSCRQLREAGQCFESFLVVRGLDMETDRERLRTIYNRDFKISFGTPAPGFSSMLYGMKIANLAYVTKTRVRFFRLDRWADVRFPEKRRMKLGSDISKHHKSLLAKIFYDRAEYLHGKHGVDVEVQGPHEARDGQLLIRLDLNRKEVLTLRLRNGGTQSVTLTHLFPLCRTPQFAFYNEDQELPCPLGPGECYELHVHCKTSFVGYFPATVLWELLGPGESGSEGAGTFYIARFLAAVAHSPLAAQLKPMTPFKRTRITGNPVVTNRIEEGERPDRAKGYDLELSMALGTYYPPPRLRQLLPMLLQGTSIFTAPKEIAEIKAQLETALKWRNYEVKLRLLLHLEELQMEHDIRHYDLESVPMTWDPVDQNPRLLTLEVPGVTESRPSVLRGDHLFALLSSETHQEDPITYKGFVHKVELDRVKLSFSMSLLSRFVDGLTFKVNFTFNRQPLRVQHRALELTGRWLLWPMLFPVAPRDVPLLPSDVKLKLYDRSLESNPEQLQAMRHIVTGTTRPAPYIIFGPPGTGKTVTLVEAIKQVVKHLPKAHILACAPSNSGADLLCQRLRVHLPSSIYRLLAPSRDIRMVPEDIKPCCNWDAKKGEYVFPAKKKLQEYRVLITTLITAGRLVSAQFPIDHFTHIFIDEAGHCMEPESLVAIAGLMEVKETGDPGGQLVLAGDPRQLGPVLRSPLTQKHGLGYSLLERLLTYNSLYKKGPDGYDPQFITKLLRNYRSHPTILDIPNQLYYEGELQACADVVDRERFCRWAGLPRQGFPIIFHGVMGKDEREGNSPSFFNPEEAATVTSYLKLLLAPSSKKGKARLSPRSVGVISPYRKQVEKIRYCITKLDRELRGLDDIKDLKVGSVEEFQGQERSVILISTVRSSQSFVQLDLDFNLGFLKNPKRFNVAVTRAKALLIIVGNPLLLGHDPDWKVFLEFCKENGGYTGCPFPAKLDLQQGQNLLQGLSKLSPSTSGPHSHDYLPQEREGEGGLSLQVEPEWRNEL
Experiment: co-IP

B1: TUT4 (natural protein)
chain: MEESKTLKSENHEPKKNVICEESKAVQVIGNQTLKARNDKSVKEIENSSPNRNSSKKNKQNDICIEKTEVKSCKVNAANLPGPKDLGLVLRDQSHCKAKKFPNSPVKAEKATISQAKSEKATSLQAKAEKSPKSPNSVKAEKASSYQMKSEKVPSSPAEAEKGPSLLLKDMRQKTELQQIGKKIPSSFTSVDKVNIEAVGGEKCALQNSPRSQKQQTCTDNTGDSDDSASGIEDVSDDLSKMKNDESNKENSSEMDYLENATVIDESALTPEQRLGLKQAEERLERDHIFRLEKRSPEYTNCRYLCKLCLIHIENIQGAHKHIKEKRHKKNILEKQEESELRSLPPPSPAHLAALSVAVIELAKEHGITDDDLRVRQEIVEEMSKVITTFLPECSLRLYGSSLTRFALKSSDVNIDIKFPPKMNHPDLLIKVLGILKKNVLYVDVESDFHAKVPVVVCRDRKSGLLCRVSAGNDMACLTTDLLTALGKIEPVFIPLVLAFRYWAKLCYIDSQTDGGIPSYCFALMVMFFLQQRKPPLLPCLLGSWIEGFDPKRMDDFQLKGIVEEKFVKWECNSSSATEKNSIAEENKAKADQPKDDTKKTETDNQSNAMKEKHGKSPLALETPNRVSLGQLWLELLKFYTLDFALEEYVICVRIQDILTRENKNWPKRRIAIEDPFSVKRNVARSLNSQLVYEYVVERFRAAYRYFACPQTKGGNKSTVDFKKREKGKISNKKPVKSNNMATNGCILLGETTEKINAEREQPVQCDEMDCTSQRCIIDNNNLLVNELDFADHGQDSSSLSTSKSSEIEPKLDKKQDDLAPSETCLKKELSQCNCIDLSKSPDPDKSTGTDCRSNLETESSHQSVCTDTSATSCNCKATEDASDLNDDDNLPTQELYYVFDKFILTSGKPPTIVCSICKKDGHSKNDCPEDFRKIDLKPLPPMTNRFREILDLVCKRCFDELSPPCSEQHNREQILIGLEKFIQKEYDEKARLCLFGSSKNGFGFRDSDLDICMTLEGHENAEKLNCKEIIENLAKILKRHPGLRNILPITTAKVPIVKFEHRRSGLEGDISLYNTLAQHNTRMLATYAAIDPRVQYLGYTMKVFAKRCDIGDASRGSLSSYAYILMVLYFLQQRKPPVIPVLQEIFDGKQIPQRMVDGWNAFFFDKTEELKKRLPSLGKNTESLGELWLGLLRFYTEEFDFKEYVISIRQKKLLTTFEKQWTSKCIAIEDPFDLNHNLGAGVSRKMTNFIMKAFINGRKLFGTPFYPLIGREAEYFFDSRVLTDGELAPNDRCCRVCGKIGHYMKDCPKRKSLLFRLKKKDSEEEKEGNEEEKDSRDVLDPRDLHDTRDFRDPRDLRCFICGDAGHVRRECPEVKLARQRNSSVAAAQLVRNLVNAQQVAGSAQQQGDQSIRTRQSSECSESPSYSPQPQPFPQNSSQSAAITQPSSQPGSQPKLGPPQQGAQPPHQVQMPLYNFPQSPPAQYSPMHNMGLLPMHPLQIPAPSWPIHGPVIHSAPGSAPSNIGLNDPSIIFAQPAARPVAIPNTSHDGHWPRTVAPNSLVNSGAVGNSEPGFRGLTPPIPWEHAPRPHFPLVPASWPYGLHQNFMHQGNARFQPNKPFYTQDRCATRRCRERCPHPPRGNVSE
fold enrichment in the co-IP relative to TUT7: ~10 fold
